Variants at the floor of the assay were thinned out.
B1: TPR 5TU (parent)
chain: GGAUCUUCUCGAUCUAACAAAAAAGACAAAUCUGCCACAAAGCUUGAGAGCAUCUUCGGAUGCAGAGGCGGCAGCCUUCGGUGGCGCGAUAGCGCCAACGUUCUCAACUAUGACACGCAAAACGCGUGCUCCGUUGAAUGGAGUUUAUCAUG

Variants of: B1
Experiment: polymerase ribozyme fitness, log enrichment relative to wild type (log ratio); higher = more active; in vitro selection for triplet polymerase activity
In short: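 The heterodimeric triplet polymerase ribozyme's subunits were each mutagenized into PCR-built libraries and transcribed. Every library was selected once, in triplicate, by annealing with a biotinylated primer, the partner subunit and triplets, incubating frozen at −7 °C, gel-excising extended constructs, capturing on streptavidin beads and running RT-PCR. Input and output libraries were Illumina-sequenced, with genotypes kept only at ≥10 input reads and ≥1 read per output. Fitness, from inverse-variance-weighted replicate averages, is the base-2 logarithm of genotype enrichment over wild-type enrichment.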

Polymerase ribozyme fitness (log ratio), ≤ -4.2:
GGAUCUUCUCGAUCUAACAAAAAAGACAAAUCUGCCACAAAGCUUGAGCGCAUCUUCGGAUGCAGAGGCGGCAGCCUUCGGUGGCGCGAUAGCGCCGACGUUCUCAACUAUGACACGCAAAACGCGUGCUCCGUUGAAUGGAGUUUACCAUG [A49C A97G U148C]
GGAUCUUCUCGAUCUAACAAAAAAGACAAAUCUGCCACAAAGCUUGAGCGCAUCUUCGGAUGCAGCGGCGGCAGCCUUCGCUUGCGCGAUAGCGCCAAUGGUCUCAAUUAUGACACGCAAAACGCGUGCUCCGUUGAAUGGAGUUUAUCAUG [A49C A66C G81C G83U C99U U101G C108U]
GGAUCUUCUCGAUCUAACAAAAAAGACAAAUCUGCCACAAAGCUUGAGCGCGUCUUCGGAUGCAGAGGCGGAAGCCUUCGGUGGCGCGAUAGCGCCAACGUUCUCAACUAUGACACGCAAAACGCGUGCUCCGUUGAAUGGAGUUUAUCAUG [A49C A52G C72A]
GGAUCUUCUCGAUCUAACAAAAAAGACAAAUCUGCCACAAAGCUUGAGCGCAUCUUCGGAUGCAGAGGCGGCAGCCUUCGGUGGCGCGAUUGCGACAACGUUCUCAUCUAUGACACGCAAAACGCGUGCUCCGUUGAAUGGAGUUUAUCAUG [A49C A91U C95A A107U]
GGAUCUUCUCGAUCUAACAAAAAAGACAAAUCUGCCACAAAGCUUGAGCGCAUCUUCGGAUGCAGAGGCGGCAGCCUUCGGUGGCGCGAUAGCGCCAGCGUUCUCAACUAUGACACGCAAAACGCGUGCUCCGUUGAAUGGAGUUUAUCAUG [A49C A98G]
GGAUCUUCUCGAUCUAACAAAAAAGACAAAUCUGCCACAAAGCUUGAGCGCAUCUUCGGAUGCAGAGGCGGCAGCCUUCGGUGGCGCGAUAGCGCCAACGUUCUCAACUAUGACACGCUAAACGCGUGCUCCGUUGAAUGGAGUUUAUCAUG [A49C A119U]
GGAUCUUCUCGAUCUAACAAAAAAGACAAAUCUGCCACAAAGCUUGAGCGUAUCUUCGGAUGCAGAGGCGGCGGCCUUCGGUGGCGCGAUAGCGCCAACGUUCUCAACUAUGACACGCAAAACGCGUGCUCCGUUGAAUGGAGUUUAUCAUG [A49C C51U A73G]
GGAUCUUCUCGAUCUAACAAAAAAGACAAAUCUGCCACAAAGCUUGAGCGCAUCUUCGGAUGCAGAGGCGGCGGCCUUCGGUGGCGCGAUGGCGCCAACGUUCUCAAUUAUGACACGCCAAACGAGUGCUCCGUUGAAUGGAGUUUAUCAUG [A49C A73G A91G C108U A119C C125A]
GGAUCUUCUCGAUCUAACAAAAAAGACAAAUCUGCCACAAAGCUUGAGCGCCUCUUCGGAUGCAGAGGCGGCAGCCUUCGGUGGCGCGAUAGCGCAAACGUGCUCAACUAUGACACGCAAAACGCGCGCUCCGUUGAAUGGAGUUUAACAUG [A49C A52C C96A U102G U127C U148A]
GGAUCUUCUCGAUCUAACAAAAAAGACAAAUCUGCCACAAAGCUUGAGCGUCUCUUCGGAUACAGAGGCAGCAGCCUUCGGUGACGCGAUAGCGCCAACGUUCUCGACUAUGACGCGCAAAACGCGUGCUCCGUUGAAUGGAGUUUAUCAUG [A49C C51U A52C G62A G70A G84A A106G A115G]
GGAUCUUCUCGAUCUAACAAAAAAGACAAAUCUGCCACAAAGCUUGAGCGUAUCUUCGGAUGCAGAGGCGGCAGCCUUCGGUGGCGCGAUAGCGCCAACGUUCUCAACUAUGACACGCAAAACGCGUGCUCCAUUGAAUGGAUUUUAUCAUG [A49C C51U G133A G143U]
GGAUCUUCUCGAUCUAACAAAAAAGACAAAUCUGCCACAAAGCUUGAGCGCAUCUUCGGAUGCAGAGGCGGCAGACUUCGCUGGCGCGAUAGGGCCAACGUUCUCCACAAUGACACGCAAAACGCGUGCUCCGUUAAAUGGAGUUUAUCAUG [A49C C75A G81C C93G A106C U109A G136A]
GGAUCUUCUCGAUCUAACAAAAAAGACAAAUCUGCCACAAAGCUUGAGCGCAUCUUCGGAUGCAGAGGCGGCAGUAGUCGUUGGCGUGAUAGUACCAACGUUCUCAACUAUGACACGCAAAACGCGUGCUGCGGUGAAUGGAGUUUAUCAUG [A49C C75U C76A U77G G81U C87U C93U G94A C131G U134G]
GGAUCUUCUCGAUCUAACAAAAAAGACAAAUCUGCCACAAAGCUUGAGCGCUUCUUCGGAUGCAGAGGCGGCAGCCUUCGGUGACGCGAUAGCGCCAACGUUCUUAACUAUGACACGCAAAACUCGUGCUCCGUUGAAUGGAGUUUAUCAUG [A49C A52U G84A C105U G124U]
GGAUCUUCUCGAUCUAACAAAAAAGACAAAUCUGCCACAAAGCUUGAGCGCAUCUUCGGAUGCAGAGGCGGCAGCCUUUGGUGGUGCGAUAGCGCCAACGUUCUCAACUAUGACACGCAAAACGCGUGCUCAGAUGAAUGGAGUUUAUCAUG [A49C C79U C85U C132A U134A]
GGAUCUUCUCGAUCUAACAAAAAAGACAAAUCUGCCACAAAGCUUGAGCGCAUCUUCGGAUGCAGAGGCGGCAGCAUUCGGUGGCGCGAUAGCGCCAACGUUCUCAACUAUGACACGCAAAACGCGUGCUCCGUUGAAUGGAGUUUAUCAUG [A49C C76A]
GGAUCUUCUCGAUCUAACAAAAAAGACAAAUCUGCCACAAAGCUUGAGCGCAUCUUCGGAUGCAGAGGAGGCAGCCUUUGGUUGCGCGAUAGCUCCAACGUUCACAACUAUGACACGCAAAACGCGUGCUCCGUUGAAUGGAGUUUAUCAUG [A49C C69A C79U G83U G94U U104A]
GGAUCUUCUCGAUCUAACAAAAAAGACAAAUCUGCCACAAAGCUUGAGCGCAUCUUCGGAUGCAGAGGGGGCAGCCUUCGGUGGAGCGAUAGCGCCAACGUUCUCAACUAUGACACGCACAACGUGUGCUCCGUUGAAUGGAGUUUAUCAUG [A49C C69G C85A A120C C125U]
GGAUCUUCUCGAUCUAACAAAAAAGACAAAUCUGCCACAAAGCUUGAGCGCAUCUUCGGAUGCAGAGGCGGCAGCCUUAGGUGGCGCGAUAGCGCCAACGUUCUCAAUUAUGACACGCAAAAAGCGUGCUCCGUUGAAUGGAGUUUAUCAUG [A49C C79A C108U C123A]
